Laboratory results reported in paper PMC8719770 (PLoS ONE, 2021).

Columns and labels:
[1] = target: T1, human PD-1 expressed on PD-1 transfected CHO-S cells (human, UniProt Q15116); assay: flow cytometry on cells; competition: PD-1-transfected CHO-S cells with serial diluted antibody and 0.5 μg/mL biotin-labeled PD-L2, 4°C, 30 minutes; streptavidin-PE; settings: one partner purified
T1 construct: human PD-1 on the surface of transfected CHO-S cells; also called cell-surface expressed PD-1; membrane PD-1; source: CHO-S, transfected, on cells

[2] = target: T2, human PD-1 (recombinant; construct not stated for this experiment) (Homo sapiens, UniProt Q15116); assay: SPR; format not told in the text shown (S1 Fig b, c); settings: both partners purified
T2 construct: human PD-1; the ELISA and the SPR may have used different ones; SPR methods may stand in S1 File

[3] = target: T3, recombinant cynomolgus monkey PD-1 His tag (Macaca fascicularis (cynomolgus monkey), UniProt B0LAJ3); assay: BLI; Octet Red96; antibodies (5 μg/ml) captured on protein A biosensor tips; serial dilution of PD-1 as analyte, 120 sec association, 300 sec dissociation; HBS-EP+ pH 7.4, 25°C, 1000 rpm; global 1:1 fit; apparent constants; settings: both partners purified
T3 construct: cynomolgus monkey PD-1 extracellular domain; also called cynomolgus PD-1; source: bought: R&D Systems

[4] = target: T1, human PD-1 expressed on PD-1 …; assay: flow cytometry on cells; competition: PD-1-transfected CHO-S cells with serial diluted antibody and 5 μg/mL biotin-labeled PD-L1, 4°C, 30 minutes; streptavidin-PE; settings: one partner purified
rat PD-1 ECD-Fc = target: T4, rat PD-1 ECD-Fc (Rattus norvegicus, UniProt D3ZIN8); assay: ELISA; PD-1-Fc proteins (9 ng per well) immobilized on 96-well plate overnight at 4°C; serial diluted HLX10, one hour at room temperature; detected with peroxidase-labeled goat anti-human IgG F(ab)'2; settings: both partners purified
T4 construct: rat PD-1 extracellular domain; also called murine PD-1; source: bought: Sino Biological Inc

mouse PD-1-ECD-Fc = target: T5, mouse PD-1-ECD-Fc (Mus musculus, UniProt Q02242); assay: as above; settings: both partners purified
T5 construct: mouse PD-1 extracellular domain; also called murine PD-1; source: bought: Sino Biological Inc

- IC50 [1]: 6.46 nM
- Kd [2]: 0.32 nM
- Kd [3]: 4.78 ± 0.16 nM
- koff [3]: 0.000745 s⁻¹
- kon [3]: 153000 M⁻¹ s⁻¹
- IC50 [4]: 4.36 nM
- binding result (rat PD-1 ECD-Fc): no binding
- binding result (mouse PD-1-ECD-Fc): no binding
B1: HLX10, fully humanized IgG4 monoclonal antibody against PD-1 receptor (antibody, V domains shown)
VH: QVQLVESGGGLVKPGGSLRLSCAASGFTFSNYGMSWIRQAPGKGLEWVSTISGGGSNIYYADSVKGRFTISRDNAKNSLYLQMNSLRAEDTAVYYCVSYYYGIDFWGQGTSVTVSS
VL: DIQMTQSPSSLSASVGDRVTITCKASQDVTTAVAWYQQKPGKAPKLLIYWASTRHTGVPSRFSGSGSGTDFTLTISSLQPEDFATYYCQQHYTIPWTFGGGTKLEIK
notes: humanized VH (CDRs of chimeric c1G4 grafted on human germline IGHV3-11*04) on a human IgG4 constant region; humanized VL (CDRs of chimeric c1G4 grafted on human germline IGKV1-39*01); IgG4, hinge-stabilized; the PDB entry holds the Fab only; also called h1G4; hIG4
